Experimental findings from patent publication US20250003958A1 are described below.

Experiment [1] addresses CD8 on CD8-positive cells (PBMCs in Example 1, Immuno-Trol cells in Example 3) (UniProt P01732). Nature of the experiment: negative control; magnetic bead depletion of Immuno-Trol cells, flow cytometry of the supernatant (59% before addition of beads). For orientation: In flow cytometry, cells or beads pass a laser one at a time.
The target is the same in experiment [2]. Nature of the experiment: negative control; magnetic bead depletion of Immuno-Trol cells, flow cytometry of the supernatant (41% before addition of beads).
For experiment [3] the target is unchanged. Nature of the experiment: negative control; magnetic bead depletion of PBMCs, flow cytometry of the supernatant (72% before addition of beads).
The target is the same in experiment [4]. The experiment is described as follows: negative control; magnetic bead depletion of PBMCs, flow cytometry of the supernatant (28% before addition of beads).
The target in experiment [5] is CD4 on CD4-positive cells (PBMCs) (UniProt P01730). Nature of the experiment: negative control; magnetic bead depletion of PBMCs, flow cytometry of the supernatant (18% before addition of beads).
For experiment [6] the target is unchanged. The experiment is described as follows: negative control; magnetic bead depletion of PBMCs, flow cytometry of the supernatant (82% before addition of beads).
Experiment [7] shares this target. The experiment is described as follows: negative control; cells trapped by beads, released with DNase I, flow cytometry.
Experiment [8] deals with CD8 on CD8-positive cells (PBMCs in Example 1, Immuno-Trol cells in Example 3) (UniProt P01732). Described as above.

Chain of UniProt P01732 (P01732 22-235): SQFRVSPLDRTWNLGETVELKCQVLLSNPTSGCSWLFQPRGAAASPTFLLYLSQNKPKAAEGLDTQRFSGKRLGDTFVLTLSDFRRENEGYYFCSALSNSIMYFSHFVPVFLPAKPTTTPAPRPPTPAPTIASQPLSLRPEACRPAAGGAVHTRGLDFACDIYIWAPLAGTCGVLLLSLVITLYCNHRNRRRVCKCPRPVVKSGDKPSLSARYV

As for “Control antibody (Biolegend), held on streptavidin magnetic beads through oligo-DNA-modified Protein A/G”, the Ratio of CD3-positive and CD4-positive cells remaining in the supernatant in experiment [1] came out at 61%. Also, the Ratio of CD3-positive and CD4-negative cells remaining in the supernatant in experiment [2] stood at 39%.

“Isotype Control antibody (Biolegend), modified with FITC-introduced synthetic oligo-DNA linker and immobilized on streptavidin magnetic beads”: the Ratio of CD3-positive and CD4-positive cells remaining in the supernatant in experiment [3] is 67%. Further, the Ratio of CD3-positive and CD4-negative cells remaining in the supernatant in experiment [4] was 33%. The Ratio of CD3-positive and CD8-positive cells remaining in the supernatant in experiment [5] is 19%. Besides, the Ratio of CD3-positive and CD8-negative cells remaining in the supernatant in experiment [6] is 81%. Besides, the Ratio of FITC-positive cells in experiment [7] worked out at 26%; in experiment [8] it was 19%.
